Experimental data: the supplement of paper PMC11246515
± gives the standard deviation of the averaged measurements.

Test: total protein half-life in vivo (active degradation + dilution); higher = more stable protein
[1] = E. coli NCM3722 delta-clpP delta-lon delta-hslV, growth: N-lim chemostat, doubling time 6 h
[2] = wild type E. coli NCM3722, growth: C-lim chemostat, doubling time 6 h
[3] = wild type E. coli NCM3722, growth: C-lim chemostat, doubling time 12 h
[4] = wild type E. coli NCM3722, growth: N-lim chemostat, doubling time 6 h
[5] = wild type E. coli NCM3722, growth: N-lim chemostat, doubling time 12 h
[6] = wild type E. coli NCM3722, growth: P-lim chemostat, doubling time 12 h
[7] = E. coli NCM3722 delta-clpP, growth: N-lim chemostat, doubling time 6 h
[8] = E. coli NCM3722 delta-hslV, growth: N-lim chemostat, doubling time 6 h
[9] = E. coli NCM3722 delta-lon, growth: N-lim chemostat, doubling time 6 h
[10] = E. coli NCM3722 delta-smpB, growth: N-lim chemostat, doubling time 6 h
[11] = wild type E. coli NCM3722, growth: C-lim chemostat, doubling time 3 h
[12] = wild type E. coli NCM3722, growth: P-lim chemostat, doubling time 6 h

Sequence | total protein half-life in vivo [1] [h] | total protein half-life in vivo [2] [h] | total protein half-life in vivo [3] [h] | total protein half-life in vivo [4] [h] | total protein half-life in vivo [5] [h] | total protein half-life in vivo [6] [h] | total protein half-life in vivo [7] [h] | total protein half-life in vivo [8] [h] | total protein half-life in vivo [9] [h] | total protein half-life in vivo [10] [h] | total protein half-life in vivo [11] [h] | total protein half-life in vivo [12] [h]
MSQSLFSQPLNVINVGIAMFSDDLKKQHVEVTQLDWTPPGQGNMQVVQALDNIADSPLADKIAAANQQALERIIQSHPVLIGFDQAINVVPGMTAKTILHAGPPITWEKMCGAMKGAVTGALVFEGLAKDLDEAAELAASGEITFSPCHEHDCVGSMAGVTSASMFMHIVKNKTYGNIAYTNMSEQMAKILRMGANDQSVIDRLNWMRDVQGPILRDAMKIIGEIDLRLMLAQALHMGDECHNRNNAGTTLLIQALTPGIIQAGYSVEQQREVFEFVASSDYFSGPTWMAMCKAAMDAAHGIEYSTVVTTMARNGVEFGLRVSGLPGQWFTGPAQQVIGPMFAGYKPEDSGLDIGDSAITETYGIGGFAMATAPAIVALVGGTVEEAIDFSRQMREITLGENPNVTIPLLGFMGVPSAIDITRVGSSGILPVINTAIAHKDAGVGMIGAGIVHPPFACFEKAILGWCERYGV | 5.39 ± 0.44 | 4.45 | 7.84 | 2.89 | 4.45 | 8.94 ± 0.66 |  |  |  |  |  | 
MMYHIPGVLSPQDVARFREQLEQAEWVDGRVTTGAQGAQVKNNQQVDTRSTLYAALQNEVLNAVNQHALFFAAALPRTLSTPLFNRYQNNETYGFHVDGAVRSHPQNGWMRTDLSATLFLSDPQSYDGGELVVNDTFGQHRVKLPAGDLVLYPSSSLHCVTPVTRGVRVASFMWIQSMIRDDKKRAMLFELDNNIQSLKSRYGESEEILSLLNLYHNLLREWSEI | 4.14 ± 0.34 | 4.856 ± 0.037 | 6.39 |  | 4.16 | 11.4 ± 1.4 | 2.79 | 2.86 | 3.12 ± 0.055 | 2.31 ± 0.3 | 3 ± 0.17 | 5.85 ± 0.63
MNKHTEHDTREHLLATGEQLCLQRGFTGMGLSELLKTAEVPKGSFYHYFRSKEAFGVAMLERHYAAYHQRLTELLQSGEGNYRDRILAYYQQTLNQFCQHGTISGCLTVKLSAEVCDLSEDMRSAMDKGARGVIALLSQALENGRENHCLTFCGEPLQQAQVLYALWLGANLQAKISRSFEPLENALAHVKNIIATPAV | 5.12 | 5.91 ± 0.12 | 11.7 | 7.06 |  | 12.7 | 4.66 ± 0.51 | > 8 | 6.18 | 4.66 ± 0.14 | 3.13 ± 0.15 | 5.25
MATNAKPVYKRILLKLSGEALQGTEGFGIDASILDRMAQEIKELVELGIQVGVVIGGGNLFRGAGLAKAGMNRVVGDHMGMLATVMNGLAMRDALHRAYVNARLMSAIPLNGVCDSYSWAEAISLLRNNRVVILSAGTGNPFFTTDSAACLRGIEIEADVVLKATKVDGVFTADPAKDPTATMYEQLTYSEVLEKELKVMDLAAFTLARDHKLPIRVFNMNKPGALRRVVMGEKEGTLITE [P0A7E9] | 4.84 ± 0.3 | 7 ± 1.2 | 10.4 ± 1.8 | 4.93 ± 0.33 | 8.29 ± 1 | 14.4 ± 0.48 | 5.18 ± 0.45 | 4.79 ± 0.38 | 5.16 ± 0.34 | 4.49 ± 0.16 | 3.24 ± 0.27 | 5.84 ± 0.27
MFTFIKKVIKTGTATSSYPLEPIAVDKNFRGKPEQNPQQCIGCAACVNACPSNALTVETDLATGELAWEFNLGHCIFCGRCEEVCPTAAIKLSQEYELAVWKKEDFLQQSRFALCNCRVCNRPFAVQKEIDYAIALLKHNGDSRAENHRESFETCPECKRQKCLVPSDRIELTRHMKEAI | 2.95 |  |  |  |  |  |  |  |  |  |  | 
MSDIALTVSILALVAVVGLFIGNVKFRGIGLGIGGVLFGGIIVGHFVSQAGMTLSSDMLHVIQEFGLILFVYTIGIQVGPGFFASLRVSGLRLNLFAVLIVIIGGLVTAILHKLFDIPLPVVLGIFSGAVTNTPALGAGQQILRDLGTPMEMVDQMGMSYAMAYPFGICGILFTMWMLRVIFRVNVETEAQQHESSRTNGGALIKTINIRVENPNLHDLAIKDVPILNGDKIICSRLKREETLKVPSPDTIIQLGDLLHLVGQPADLHNAQLVIGQEVDTSLSTKGTDLRVERVVVTNENVLGKRIRDLHFKERYDVVISRLNRAGVELVASGDISLQFGDILNLVGRPSAIDAVANVLGNAQQKLQQVQMLPVFIGIGLGVLLGSIPVFVPGFPAALKLGLAGGPLIMALILGRIGSIGKLYWFMPPSANLALRELGIVLFLSVVGLKSGGDFVNTLVNGEGLSWIGYGALITAVPLITVGILARMLAKMNYLTMCGMLAGSMTDPPALAFANNLHPTSGAAALSYATVYPLVMFLRIITPQLLAVLFWSIG |  | 5.33 ± 1.1 | 11.4 ± 1.6 | 5.98 ± 0.39 | 10.4 ± 0.3 | 9.94 ± 1.5 | 5.7 ± 0.54 | 6.35 | 5.52 ± 0.89 | 6.03 ± 0.39 | 3.27 ± 0.38 | 5.7 ± 0.059
MEKEQLIEIANTIMPFGKYKGRRLIDLPEEYLLWFARKDEFPAGKLGELMQITLLIKTEGLTQLVQPLKRPL [P0AD40] | 6.16 ± 0.29 | 5.09 | 6.67 |  |  | 8.7 ± 2.7 |  |  |  |  |  | 3.3
MSKPIVMERGVKYRDADKMALIPVKNVATEREALLRKPEWMKIKLPADSTRIQGIKAAMRKNGLHSVCEEASCPNLAECFNHGTATFMILGAICTRRCPFCDVAHGRPVAPDANEPVKLAQTIADMALRYVVITSVDRDDLRDGGAQHFADCITAIREKSPQIKIETLVPDFRGRMDRALDILTATPPDVFNHNLENVPRIYRQVRPGADYNWSLKLLERFKEAHPEIPTKSGLMVGLGETNEEIIEVMRDLRRHGVTMLTLGQYLQPSRHHLPVQRYVSPDEFDEMKAEALAMGFTHAACGPFVRSSYHADLQAKGMEVK | 5.22 ± 1 | 1.93 ± 0.095 | 2.47 ± 0.21 | 1.67 ± 0.095 | 2.4 ± 0.28 | 3.3 ± 0.49 | 1.56 ± 0.071 | 1.64 ± 0.38 | 1.84 ± 0.034 | 1.27 ± 0.14 | 1.23 ± 0.056 | 1.74 ± 0.22
MKLTIIRLEKFSDQDRIDLQKIWPEYSPSSLQVDDNHRIYAARFNERLLAAVRVTLSGTEGALDSLRVREVTRRRGVGQYLLEEVLRNNPGVSCWWMADAGVEDRGVMTAFMQALGFTAQQGGWEKC | 4.23 ± 0.29 | 6.2 ± 1.2 | 11.91 ± 0.065 | 3.31 | 6.11 ± 1.4 | 12.9 ± 2.6 | 3.9 ± 0.53 | 5.19 |  | 3.46 ± 0.21 |  | 5.99 ± 0.11
